Experimental data published in a protein production outcome set (Wang et al. 2014).

Experiment: label from the status in PepcDB records

Sequence	protein production
INQQEDSSESCWNCGRKASETCSGCNTARYCGSFCQHKDWEKHHHIC	not failed
IPGSPFTAKITDDSRRCSQVKLGSAADFLLDISETDLSSLTASIKAPSGRDEPCLLKRLPNNHIGISFIPREVGEHLVSIKKNGNHVANSPVSIMVVQSEIGD	not failed
IPSDGLTIPYGSGPKPIFRAQVGKKVYQSLINQATESVYITTPYLIIDYDLTETIKNAAMRGVDVRIITPYIPDKKFIQLVTRGAYPDLLSAGVRIYEYSPGFIHSKQMLVDEDFAVVGTINLDYRSLVHHYENAVLLYKTPSIREIARDFRNIFADSQEVYPHSIKTSWYQKLVKEIAQLFAPIL	failed
IQVFVKNPDGGSYAYAINPNSFILGLKQQIEDQQGLPKKQQQLEFQGQVLQDWLGLGIYGIQDSDTLILSKKKG	not failed
IRRKINANVYDKVVLYAPTWRGIHGKATLDIEKLKNDLEKLADQDCHIVFRGHHMIEKLVSEQNISGITIVPSEIDTNELLGAIDILITDYSSIAFDFFVMNRPVIYYAYDIEQYNNERGLYFPLNELPGTVCFNDVELLNTLSGYLRNEIYFDASKGIDKFCKNDDGSVCGKVIEWFFF	failed
IRSIWENNGFGLMSSKTMTDFDYWISDFEKIGASQKEAEQLIVKAIEIAIDANARNYNYINAILKDWEQRGFKSVEEREA	not failed
IRYAIERQRVEEALRHSEERFRVALKNSPIFVFNQDRDLRYTWIYNPIAGWTVEEMLGKQDSEIMSEQDAQCLTAIKYHVLTTGIGTRQVVSIGTPLGTKYYDLTVEPLRNESQDIVGITCACIDISERKLAEAKIREQ	not failed
ITERKQIEEALQKSGQRLRMTLESTSTNWWERDLITDQADWSEQSDHLLGYTPDSYEKNQDTFYKLVHPDDREHVQAGVNLAIATGEPYQGEFRLVQADGNCIWILGTGHVEYNEAGQPVRMSGLNIN	failed
IYGYVEKATLIDQNLTLSAKLDTGAKSASLHAVNITEIEKKGIPYLRFTVPTKTGDYSFEGEYVGKVKIKVRSSETNPGLLRTTPIKRPVVLLNIKLGDKVRTIKVNLTNRKRFLYPLLLGRDAIIDFNGAVDPALTFTTKSK	not failed
KAFLEDMKKYAETFLEPWFKAPNKGTFQIVYKSRNNSHVNREEVIRELAGIVCTLNSENKVDLTNPQYTVVVEIIKAVCCLSVVK	not failed
KCETKEKGAITAKELYTMMTDKNISLIIMDARRMQDYQDSCILHSLSVPEEAISPGVTASWIEAHLPDDSKDTWKKRGNVEYVVLLDWFSSAKDLQIGTTLRSLKDALFKWESKTVLRNEPLVLEGGYENWLLCYPQYTTNAKV	not failed
KDFLAMFSPKCGGCNRPVLENYLSAMDTVWHPECFVCGDCFTSFSTGSFFELDGRPFCELHYHHRRG	not failed
KFAYKVGIGLEVPFANTNIWSFQTGLNFISKGVKGDGVTDAWDVVDVTINQLYLELPLMVGARIHTASNFDLLFKGGPYLAYGVGGKTKIDGVSEKADTFGDDGLKRFDAGLGLGVAFEFGNIVVGVETGTSFTKVASGVSAHNLSALATIGYKF	failed
KGDRLGAVVEWQDNTEALRLKAEADARALEESRVAGENARIRSALDNCTTNVMIADNDRRIIYMNHSVTDMLRGAESDLRKALPNFEVRRLIGSTMDEFHKNPAHQRDLLANLRSTYRAEIQVAGRTFSLVANPVFDADGERLGSVVEWKDRTAEVEIEREVSEIVRAASAGE	failed
KGGVWRNTEDEILKAAVMKYGKNQWSRIASLLHRKSAKQCKARWYEWLDPSIKKTEW	not failed
KGIKKEIHINDKVIYYTHIEKGSSTVCFMFSGSGYNYDKPLFYYATMLMLEHKIDVVHIHYSYDEQVMNKPMEEVTKIMMDDINPVMKEVLKAEQYNDTIFLGKSLGTIPIANDLMKREEFLQSKMILLTPLLTFDTIFDSILHSNHEGFLVMGDKDHQYNADQVDQLHKTNLQIEVVKNANHSVNVGGYETENSIEAIAKIIGKLKEVVRTN	failed
KIDFISDVSCPWCVIGLRALDQALEALGDEVQAQIHFQPFELNPNMPAEGQDIKEHIAEKYGSTPEQIEAIHETIRERGAELGFTFGKGERRIYNTFDAHRLLHWAEQEGKQPALKQALFVAYFSELKDPSSHQTLADVAQKVGLDRLRAQAILDSDEFASEVREAEQLWTSRGITSVPTMVFNDQYAVSGGQPVEVFVSAIRQMLSES	failed
KIIGYARVSFNAQKDDLERQIQLIKSYAEENGWDIQILKDIGSGLNEKRKNYKKLLKMVMNRKVEKVIIAYPDRLTRFGFETLKEFFKSYGTEIVIINKKHKTPQEELVEDLITIVSHFAGKLYGMHSHKYKKLTKTVKEIVREEDAKEKE	not failed
KLFPRLFGLYRHVADLYQKMKALHPIMNDTLNRQAERWGLGKIYLSEEEFCQSEEKEKIRMLQSDFYDRMWYRLDFRGKLGSAKSFQCYYFFFRHS	failed
KLHYKQIVWVKLGNYRWWPAEICNPRSVPLNIQGLKHDLGDFPVFFFGSHDYYWVHQGRVFPYVEGDKSFAEGQTSINKTFKKALEEAAKRFQELKA	not failed

Sequence	protein production
KLKKKEYEQELKKLQVELVKLQEWVKHKGLKVVVLFEGRDAAGKGGVIKRITEKLNHRVCRVVALPAPTEKEKTQWYFQRYVAHLPSAGEIVLFDRSWYNRAGVEKVMGFCTPDEYEEFLRSCPEFERMLQRSGIILLKYWFSVSDEEQEKRFLGRINTPIKRWKFSPMDLESRHRWAEYSEAKDKMFAYTDTKNCPWWVVPSDSKQKARLNCISHLLSQIEYKALEYP	not failed
KNKKVILFAPTFRGNGHRTAHYPFFKINFARLASYCEEHQATVLFKMHPFVRNKLNIPAIYSKYFLDISNYREVNDVLFITDILISDYSSLIYEFSVFKKPMLFYAFDLEDYIYTRDFYEPYETFVPGKIVKIFDELILALENNDFELEKVKPFLNKNFKYKDGKSSERLVKDLFNKFFQ	failed
KPREEKRTALSKVVIRRLPPGLTKEQLEEQLRPLPAHDYFEFFAADLSLYPHLYSRAYINFRNPDDILLFRDRFDGYIFLDSKGLEYPAVVEFAPFQ	failed
KQQKDGSWLMDALIPLNELKYKLGLTTIEGEESEGFQTLNGFLTWWLGRLPHAGELVDYEGWQFEVLNVKHHRIVQVKVSRETESETTTDTNDGDANP	not failed
KSVFPFSNVLKQTLLKRATVFLGVPAIYTAMSKAKIPWYFRWFNRIRLFISGGAPLAEQTILDFKAKFPRAKLLEGYGLSEASPVVAVNTPERQKARSVGIPLPGLEAKAVDEELVEVPRGEVGELIVRGGSVMRGYLNMPAATDETIVNGWLKTGDFVTIDEDGFIFIVDRKKDLIISKGQNVYPREIEEEIYKLDAVEAAAVIGVKDRYADEEIVAFVQLKEGMDLGENEIRRHLRTVLANFKIPKQIHFKDGLPRNATGKVLKRVLKEQFDGNK	failed
KVKIPYQKYKLDNGLTVILAPEGSDPLVHVDVTYHVGSAREEIGKSGFAHFFEHMMFQGSENVGDQEHFKIITEAGGTLNGTTNRDRTNYFETVPANQLEKMLWLESDRMGFLLDAVSQRKFEIQRSTVKNERAQRYDNRPYGLIWERMSEALYPEGHPYSWQTIGYVEDLERVDVNDLKAFFLRWYGPNNATITIGGDLDVEQTLAWVNKYFGSIPRGP	failed
KVKWTHEEDEQLRALVRQFGQQDWKFLASHFPNRTDQQCQYRWLRVL	not failed
LADGDFIDLDWHGPHQPHAPLVIVLHGLTGSSHSPYVKGLQQALQDRGWASVAVNWRGCSGEPNLLPRSYHSGASEDLAEIVSHLRAQRPLAPLYAVGYSLGGNVLLKYLGESGVASQLEAAAAVSVPFRLDHCADRIGQGFSKVYQAHFMREMLAYVQLKQRHFHARGQHEQLATLERLGQLTNLRTFWDFDGKVTAPLNGFRDAHDYYRRSSSHFFLGQNRTPTLIIHSSDDPFVSSHSLPTARELSPQTRFELHDRGGHVGFVDG	failed
LAMPPGNSHGLEVGSLAEVKENPPFYGVIRWIGQPPGLNEVLAGLELEDECAGCTDGTFRGTRYFTCALKKALFVKLKSCRPDSRFASLQP	not failed
LANRIENVVSQERTRKKFESLVSDSPDGIVHLTTNGTILSVNPSMAGRLGADPDTLVGQQLSAVMDSEAANQRLEAGKSAVENGTATRSEDAVGGRHYHNQYIPVDSHRKSDTFQLVSRDIT	not failed
LAPGLHFIATPIGAARDITLRALDILRAADVLAAEDTRTLRHLMEIHGIPLGGRPLVAYHDHNGEAARPRLLRALAEGRSVAYASEAGTPLVADPGFQLGRAAIAAGHPVLAAPGPS	failed
LAPTAQKMSKNYGVLASILLSQAAYESNYGSSLLSVKYHNIYSLPARPGQEHIYLKDNVYSKGKWQYQKVDFAVFRDWSSSMSSYLEELRQGRWGESTYKEVAGTTSYKVAAEKLQAAGFNSDPDYTKHLISIIETYNLVKYDR	failed
LAYQPGKLLVRGDTPLFKIERLLGIDLDHIEAETLAGLIYETLKRVPEEEEQMEVEGLRIIIKKMKGPKIVLAKVLKLD	not failed
LDAVVQEKFSGRRWTIPAKVYARPLELFNGLKLSREDFLRELDALGYRREPSVSGPGTVSVAASAVELNTRGFQFYEGAEPAQRVRVRFNGNYVSGLSQANGKELAVARLEPLLIGGLYPAHHEDRILVKLDQVPTYLIDTLVAVEDRDFWNHHGVSLKSVARAVWVNTTAGQLRQGGSTLTQQLVKNFFLSNERSLSRKINEAMMAVLLELHYDKRDILESYLNEVFLGQDGQRAIHGFGLASQYFFSQPLAELKLDQVALLVGMVKGPSYFNPRRYPDRALARRNLVLDVLAEQGVATQQEVDAAKLRPLGVTRQGSMADSSYPAFLDLVKRQLRQDYRDEDLTEEGLRIFTSFDPILQEKAETSVNETLKRLSGRKGVDQVEAAMVVTNPETGEIQALIGSRDPRFAGFNRALDAVRPIGSLIKPAVYLTALERPSKYTLTTWVQDEPFAVKGQDGQVWRPQNYDRRSHGTIFLYQGLANSYNLSTAKLGLDVGVPNVLQTVARLGINRDWPAYPSMLLGAGSLSPMEVATMYQTIASGGFNTPLRGIRSVLTADGQPLKRYPFQVEQRFDSGAVYLVQNAMQRVMREGTGRSVYSQLPSSLTLAGKTGTSNDSRDSWFSGFGGDLQAVVWLGRDDNGKTPLTGATGALQVWASFMRKAHPQSLEMPMPENVVMAWVDAQTGQGSAADCPNAVQMPYIRGSEPAQGPGCGSQNPAGEVMDWV	failed
LEEHEQFNHKIVASAPVGISILRIRDGMIILSNELAHNYFRLLSHSDKQNILSIIAEKSSNIVDVVTNNHNHLQISFVNSRYQNEDVAICVLVDISARVKMERSLQNMATAAEQANQAKSMFLATVSHELRTPLYGIIGNL	failed
LENDRTTFRIRNLDSGEIIWSGMGAVYPVYSPSFDHAADAFAFAFSSPADPPEIHLLRDAETKSSINSHLDGVSPYPAEIVEWKAKDGEDLYGILRLIDPKNPLIVYIHGGPTSFSYASFLDRTSIYLGYGFNVFAPNYRGSVGKGRRYAELNVGDLGGKDFDDVISGIEFLKNTGKIATDR	failed
LENQISFRKALSDSLPNPTYVVNWQGNVISHNSAFEHYFTADYYKNAMLPLENSDSPFKDVFSNAHEVTAETKENRTIYTQVFEIDNGIEKRCINHWHTLCNLPASDNAVYICGWQDITETRDLINALEVEKNKAIKATVAKSQFLATMSHEIRTPISSIMGFL	failed
LEQVQESKAESTAPSSDAVVVSKTNTSSMPVAELRSLIDDLTTQMGTAARELKFELAGRLRDEIAELKKELRGMEEIGLA	failed
LERAKLVSIDRVIDDLSRNIDIEEVSQALAGQVIIDIRHPDAQEDQPLQVPGVEIQTLPFYALNSRFKALDDTRQYLLYCDKGVMSRLHAHHLLSEGHANVRVY	failed
